Data taken from the domain aggregation screens of Martell et al. (2025).

Assay: soluble fraction after stress (log2 fold change); higher = more stays soluble; pooled small domains, quantitative proteomics
Details: stress: 75 degC
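Also: 20 min heating vs room temperature control held 20 min.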

Sequence | soluble fraction (log2)
HMELPVNSIRVPDVVGLSLREAMQAMTDAGVPWQSVQAKGVGFVSRQSPEAGTVTQLRRVRLELKLF | -2.8
HMELSPVDLGERLKIARETANFTQDAAAKAVGIARTTLVSIEKGQRTARLDEIQALSRFYGVSANALLR | -1.16
HMELTDRQKQIIEIVKKQQPISGEKIASILGFARATLRPDFSLLTMSGILQAKPKVGYLINEE | -0.63
HMELVEVGDLTGLTVEQAENVLKNSNISISIDKYDESDKYEKDQIISQNPQNKKVKKGTAIHVVLSNGP | 0.527
HMEMKMGHIISKLRYESGYSQVELAEKIGITKGAVGMYETDKRKPDYDTLIKLADLFNVSTDYLLS | -0.378
HMEMNDFETLRDMYLTGKIWNVGDIVEANGVRGKVIRKGTNYLSFVDEDNKVHKAWLYDIEE | 0.291
HMEMSLGEKLKQARLTKNFSQEYMAEVLQISQKTYSNFENNKTKPDFSQIEEISKVLETSILEFLT | -1.12
HMEMTGAHLRKKIRAKGFTFQQIADAIGESKQNLSQILSTNNIKTGTLERIAAAMGESVSYF | -0.00766
HMENDYTQAQFVQDLDSGVVREVIIIPNREAPTGYARVVFGDVVRELYATDIREVEALAREHGYEPTVED | 0.343
HMENFDNIFDQRLMPSLFIIRNINQAIENNNNNKFLLNSTISMKDKHWIEIHPHHLKLIISGYQT | -0.328
HMENIEVDFGVGDTVSVIGGAWKDTVGVVQAMNPNKQSLTINVELFGRETPVEISFTDVQKM | -0.166
HMENINIRNMGIRAVEAAIISLSPDQRTFTWGATNKKLVTVPYEENPYSALAAFFKTDDGIEIYDAIEKRL | -1.08
HMENNNIAFSKFLEEVDSGRVVQVEIQGNNISGTLSDGSKFKTYSPNYPDLVSKLSEKNVSIIASPV | 0.343
HMENPLVEVVVPVLNEERILKANIETLHHFLRTQPGFNFRITIADNGSTDKTQAIANDLTNSHAVIRV | -0.151
HMENPMIEQLKQFIEAQGLTQGQLAAKLGVSTATVNQYLQGKYKGDTAALDAKAAQLMARSREK | 0.169
HMENRILIPTAENIGERLDRYISSELDAPRSQVQIWIDSGLVAVSGGLKPKNYRLREGDEIEVTIPDPV | -0.11
HMENRLREVRDEIATRHGILPTVFINDRVLMNIHSKKPKDVSQLWQVDGISDEFIMKYGPEFIAEYKKKAK | -0.119
HMENRREYQKAIDYLSDQIRAGTLTVGSRLPTERAIAEALGISRNSTREALRTMENMGMIESKQGSGHYLT | -0.215
HMENTELIELRKKRNLSQSQLAELLDLTRNQIANYESGRRIPDQETKQIIAGFFEMPAEEIFAG | -0.086

Sequence | soluble fraction (log2)
HMENTFNENLRRIRKEKKITQEQLAEFVGVSPQAVSKWEMNSFPDASLLPKIAEKLEVSIDELFGLK | 0.205
HMENTVVMPNLLGKTMTEAKIELKDLSISITLKGSENSSQYAAGQIISQSVDSGTRVAVGSSVEVTIAGS | -0.843
HMENVIYGINGPVVTVRNSRSFSMMEMVFVGNERLVGEVIGITDKITTIQVYEETTGLRPGEPVYGTGSPM | -3.8
HMENVRKTEWVTISNDKSQTRTTVYFESGNQKLDKHPQIQGFEYQRTYVEGGVKYYLFVEKGTKLDE | 0.0189
HMENYGEAITYIHGMIEDSSEKMLAASKALKVNANTLIKFMKDPYSVAAHIRDRIVENLANLEKAVKAI | -0.254
HMENYYMPVVAGQSEQDAKSMLNAMKLSLSIQVQEQESDSVAKGLAIGTSPAAGSQIRKGSSVILYISKGA | -0.844
HMEPALYRLFMAHPELNASAVARRLGIAQSLLAQYISGSKKPSPERERMILTEIHKIGEELATAS | -0.938
HMEPAPPPAAPPADPELQKRIDKLVEYIGKNGPEFEAVIRDKQHDNPDYAFVFGGEGHAYYRYLLWLLPRP | -0.466
HMEPELLTTKQVASVMNIGEERARAILLSRGVQPVSLPWGKERKTLRWSRRAVMTVIDTLHAEAQAKAGV | -2.59
HMEPLPDIPRGTRVSHQTAPADGDMPERRETGWTMTEPIRAQDGLAYVGVSVYGRGVVMLPVNSLSII | -0.384
HMEPSAQEIANKLLGHVKSLGLPITGLSISYNSTSDLATVRGQVQSQADREKIILAVGNVDHVAKVDDQLT | -0.028
HMEPSQEFSLADMVAYDLTGYPKSAALRAAVGASLGIGYGNAKQFVYRLNHYGISKDDFHRAAQEALDGL | -1.1
HMEPTAEQLKAIRQFASVNGRSWKSELRYLWETGAYHRAALGGADPGYLQQVRNQFGPGWLRAFKISK | -1.87
HMEPTPREIVVQQLGYRGLEVLGNAEYQFPKETQIIILKLAELISSGSVTETLEGGKLLALFRGVGINVR | -1.55
HMEPVQPVMYSEFIESVERGEVVEATIQGDKIIATDRSGNRYTVVGSAKDPQLVGQLLERNVAFKFVEE | 0.118
HMEQAMIVILKENPDRRQLEFLTGWLQKQQIGIHISEGAHQTVLGLVGDATRLDIDMLKQMEIVEDVKRVQ | -0.823
HMEQGDTQQEIREKILNLLADGERHMITELKNIRTDQPIDDDKIVGKTLKTLLDEEEVYMDGSYIQLNG | 0.653
HMEQIGSIIKDIRKKNNLTQNEFASILGVTFQAVSKWENDKSIPDITILKDISNKFNVDLNYLISG | -0.405
HMEQISVPIFTNDELVTFARSYSGELGYKIDDMAVLALYNRISNIQRLDQATTLTEVKDIVDEAVAKSE | 0.096
